{
  "source": "the supplement of paper PMC9170038",
  "tested_on": "K4 kissing-loop RNA reporter",
  "test": "apparent KD of K4 kissing-loop reporter; higher = weaker reporter binding",
  "details": "Eterna round: R107",
  "protocol": "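RNA-MaP round R107: designed RNA switches with theophylline, tryptophan, arginine or FMN aptamers are transcribed on-chip within common flanks. They are titrated with a labelled K4 kissing-loop RNA reporter in RNA-MaP buffer (100 mM Tris pH 7.5, 80 mM KCl, 4 mM MgCl2), without ligand or with the indicated ligand. Median apparent KD per design.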",
  "key": {"[1]": {"details": "input ligand: theophylline 20 uM"}, "[2]": {"details": "input ligand: tryptophan 2.4 mM"}},
  "data": [
    {"sequence": "GCAGGAUAGCGCGGUGCAGUGAUGUUGCACCGAGGACCGGUACGGCCGCCACUCGCUUAGAUAUCGUGUGAUGGGUAUGUCUAGA [theeternabot_exclusion_KL_Trp_A_8]", "values": [
      {"measurement": "apparent KD of K4 kissing-loop reporter", "setting": "input ligand: FMN 200 uM", "result": 116, "unit": "nM"},
      {"measurement": "apparent KD of K4 kissing-loop reporter", "setting": "input ligand: arginine 13.2 mM", "result": 110, "unit": "nM"},
      {"measurement": "apparent KD of K4 kissing-loop reporter", "setting": "input ligand: none", "result": 123, "unit": "nM"},
      {"measurement": "apparent KD of K4 kissing-loop reporter", "setting": "[1]", "result": 94, "unit": "nM"},
      {"measurement": "apparent KD of K4 kissing-loop reporter", "setting": "[2]", "result": 119, "unit": "nM"}
    ]},
    {"sequence": "GCAGUGAUGUUGCGCGAGUACGGUAGAGUACGAGGACCGGUACGGCCGCCACUCGUACGGAACUGGCUAAUUUAUGGAAUGGUGA [III]", "values": [
      {"measurement": "apparent KD of K4 kissing-loop reporter", "setting": "input ligand: FMN 200 uM", "result": 254, "unit": "nM"},
      {"measurement": "apparent KD of K4 kissing-loop reporter", "setting": "input ligand: arginine 13.2 mM", "result": 227, "unit": "nM"},
      {"measurement": "apparent KD of K4 kissing-loop reporter", "setting": "input ligand: none", "result": 295, "unit": "nM"},
      {"measurement": "apparent KD of K4 kissing-loop reporter", "setting": "[1]", "result": 270, "unit": "nM"},
      {"measurement": "apparent KD of K4 kissing-loop reporter", "setting": "[2]", "result": 193, "unit": "nM"}
    ]},
    {"sequence": "GCAGUGAUGUUGCGCGGGUACGGUAGAGUACGAGGACCGGUACGGCCGCCACUCGUACGGAACUGGCUAAUUUAUGGAAUGGUGA [IV]", "values": [
      {"measurement": "apparent KD of K4 kissing-loop reporter", "setting": "input ligand: FMN 200 uM", "result": 377, "unit": "nM"},
      {"measurement": "apparent KD of K4 kissing-loop reporter", "setting": "input ligand: arginine 13.2 mM", "result": 198, "unit": "nM"},
      {"measurement": "apparent KD of K4 kissing-loop reporter", "setting": "input ligand: none", "result": 313, "unit": "nM"},
      {"measurement": "apparent KD of K4 kissing-loop reporter", "setting": "[1]", "result": 350, "unit": "nM"},
      {"measurement": "apparent KD of K4 kissing-loop reporter", "setting": "[2]", "result": 213, "unit": "nM"}
    ]},
    {"sequence": "GCAUGAUAGUAAGGAUAUAGAUAAUCCUUAUAUAUAUCGAGUGAUGUUCGAUGUGCCAAGGUACAUCUAGAAGGUACUGUAAGGU [Same State FMN B GF 17]", "values": [
      {"measurement": "apparent KD of K4 kissing-loop reporter", "setting": "input ligand: FMN 200 uM", "result": 265, "unit": "nM"},
      {"measurement": "apparent KD of K4 kissing-loop reporter", "setting": "input ligand: arginine 13.2 mM", "result": 288, "unit": "nM"},
      {"measurement": "apparent KD of K4 kissing-loop reporter", "setting": "input ligand: none", "result": 257, "unit": "nM"},
      {"measurement": "apparent KD of K4 kissing-loop reporter", "setting": "[1]", "result": 355, "unit": "nM"},
      {"measurement": "apparent KD of K4 kissing-loop reporter", "setting": "[2]", "result": 239, "unit": "nM"}
    ]},
    {"sequence": "GCCAGUGAUGUUGGCGAACCAACGCAUGCAGAGGAUAUUCGUUCUGGAAGAAGGCUGCAGCGUUAUCAAACGCAGUGAUGUUGCG [Same State FMN A GF 26]", "values": [
      {"measurement": "apparent KD of K4 kissing-loop reporter", "setting": "input ligand: FMN 200 uM", "result": 179, "unit": "nM"},
      {"measurement": "apparent KD of K4 kissing-loop reporter", "setting": "input ligand: arginine 13.2 mM", "result": 134, "unit": "nM"},
      {"measurement": "apparent KD of K4 kissing-loop reporter", "setting": "input ligand: none", "result": 150, "unit": "nM"},
      {"measurement": "apparent KD of K4 kissing-loop reporter", "setting": "[1]", "result": 165, "unit": "nM"},
      {"measurement": "apparent KD of K4 kissing-loop reporter", "setting": "[2]", "result": 129, "unit": "nM"}
    ]},
    {"sequence": "GCCGUACGCAUGGAUACCAGACUACCAUUGGAAACAAUGUGUCCGGUAGUGAUGUUACCUGUCCCUUGGCAGCCAUGCGUACGGC", "values": [
      {"measurement": "apparent KD of K4 kissing-loop reporter", "setting": "input ligand: FMN 200 uM", "result": 649, "unit": "nM"},
      {"measurement": "apparent KD of K4 kissing-loop reporter", "setting": "input ligand: arginine 13.2 mM", "result": 549, "unit": "nM"},
      {"measurement": "apparent KD of K4 kissing-loop reporter", "setting": "input ligand: none", "result": 702, "unit": "nM"},
      {"measurement": "apparent KD of K4 kissing-loop reporter", "setting": "[1]", "result": 396, "unit": "nM"},
      {"measurement": "apparent KD of K4 kissing-loop reporter", "setting": "[2]", "result": 655, "unit": "nM"}
    ]},
    {"sequence": "GCCGUACGCAUGGAUACCAGUCAAGAUCAGUGAUGUUGAUCUUUUAUAGAGCCUACAUUUGACCCUUGGCAGCCAUGCGUACGGC", "values": [
      {"measurement": "apparent KD of K4 kissing-loop reporter", "setting": "input ligand: FMN 200 uM", "result": 378, "unit": "nM"},
      {"measurement": "apparent KD of K4 kissing-loop reporter", "setting": "input ligand: arginine 13.2 mM", "result": 320, "unit": "nM"},
      {"measurement": "apparent KD of K4 kissing-loop reporter", "setting": "input ligand: none", "result": 330, "unit": "nM"},
      {"measurement": "apparent KD of K4 kissing-loop reporter", "setting": "[1]", "result": 465, "unit": "nM"},
      {"measurement": "apparent KD of K4 kissing-loop reporter", "setting": "[2]", "result": 247, "unit": "nM"}
    ]},
    {"sequence": "GCCGUACGCAUGGAUACCAGUCUACAUCGCAGUGAUGUUGCGUAGUUCAGAUAGAUUGCCGACCCUUGGCAGCCAUGCGUACGGC", "values": [
      {"measurement": "apparent KD of K4 kissing-loop reporter", "setting": "input ligand: FMN 200 uM", "result": 133, "unit": "nM"},
      {"measurement": "apparent KD of K4 kissing-loop reporter", "setting": "input ligand: arginine 13.2 mM", "result": 109, "unit": "nM"},
      {"measurement": "apparent KD of K4 kissing-loop reporter", "setting": "input ligand: none", "result": 111, "unit": "nM"},
      {"measurement": "apparent KD of K4 kissing-loop reporter", "setting": "[1]", "result": 109, "unit": "nM"},
      {"measurement": "apparent KD of K4 kissing-loop reporter", "setting": "[2]", "result": 114, "unit": "nM"}
    ]},
    {"sequence": "GCCGUACGCAUGGAUACCAGUCUACAUCGCAGUGAUGUUGCGUAGUUCAGAUUAACUGCCGACCCUUGGCAGCCAUGCGUACGGC", "values": [
      {"measurement": "apparent KD of K4 kissing-loop reporter", "setting": "input ligand: FMN 200 uM", "result": 134, "unit": "nM"},
      {"measurement": "apparent KD of K4 kissing-loop reporter", "setting": "input ligand: arginine 13.2 mM", "result": 111, "unit": "nM"},
      {"measurement": "apparent KD of K4 kissing-loop reporter", "setting": "input ligand: none", "result": 127, "unit": "nM"},
      {"measurement": "apparent KD of K4 kissing-loop reporter", "setting": "[1]", "result": 118, "unit": "nM"},
      {"measurement": "apparent KD of K4 kissing-loop reporter", "setting": "[2]", "result": 120, "unit": "nM"}
    ]},
    {"sequence": "GCCGUACGCAUGGAUACCAGUCUUUCGCGACUGGACAUGGAGUGAUGUUUCGUGAUGCUAGACCCUUGGCAGCCAUGCGUACGGC", "values": [
      {"measurement": "apparent KD of K4 kissing-loop reporter", "setting": "input ligand: FMN 200 uM", "result": 233, "unit": "nM"},
      {"measurement": "apparent KD of K4 kissing-loop reporter", "setting": "input ligand: arginine 13.2 mM", "result": 163, "unit": "nM"},
      {"measurement": "apparent KD of K4 kissing-loop reporter", "setting": "input ligand: none", "result": 206, "unit": "nM"},
      {"measurement": "apparent KD of K4 kissing-loop reporter", "setting": "[1]", "result": 234, "unit": "nM"},
      {"measurement": "apparent KD of K4 kissing-loop reporter", "setting": "[2]", "result": 201, "unit": "nM"}
    ]},
    {"sequence": "GCCGUAGAUCGAAGGAGCGUGUCCAAACCUCAUUCAUGUACACACGAGUGAUGUUCGUGUACACAGGUAGGUCGCGAUCUACGGC [#04 K4 Arginine B Exclusion]", "values": [
      {"measurement": "apparent KD of K4 kissing-loop reporter", "setting": "input ligand: FMN 200 uM", "result": 344, "unit": "nM"},
      {"measurement": "apparent KD of K4 kissing-loop reporter", "setting": "input ligand: arginine 13.2 mM", "result": 281, "unit": "nM"},
      {"measurement": "apparent KD of K4 kissing-loop reporter", "setting": "input ligand: none", "result": 331, "unit": "nM"},
      {"measurement": "apparent KD of K4 kissing-loop reporter", "setting": "[1]", "result": 294, "unit": "nM"},
      {"measurement": "apparent KD of K4 kissing-loop reporter", "setting": "[2]", "result": 310, "unit": "nM"}
    ]}
  ]
}
